Like-named read-outs stand apart in the source and are kept apart here.
Key:
[1] = target: DS-PrPRes (Gdn-HCl treated PrPRes) (UniProt P04156)
PrPRes, native state = PrPRes, native state (UniProt P04156)

Sequence | binding signal (fluorescence ratio) ([1]; 5'-NH2) | binding signal (fluorescence ratio) (PrPRes, native state; 5'-NH2) | binding signal (fluorescence ratio) ([1]; 5'-biotin) | binding signal (fluorescence ratio) (PrPRes, native state; 5'-biotin)
CTTACGGTGGGGCAATT [Apt1] | 4.74 | 1.69 | – | –
GTTTTGTTACAGTTCGTTTCTTTTCCCTGTCTTGTTTTGTTGTCT [Apt2] | – | – | 4.74 | 1.69

Source: publication PMC3564804
